Laboratory results: patent US7906310B2, “Proteases” (Novozymes A/S, priority 2003, dated 2011)

Assay: pNA assay dose/response curves with and without various inhibitors
Type: biochemical
Conditions: proteases included for comparative purposes
Description: pNA substrate: Suc-AAPF-pNA (Bachem L-1400) or Boc-VLGR-pNA (Bachem L-1205). Temperature: 25° C.
20 ul (microliters) protease (diluted in 0.01% Triton X-100) was placed in a well of a micro titer plate. The assay was started by adding 200 ul pNA substrate (50 mg dissolved in 1.0 ml DMSO and further diluted 100× with assay buffer). The increase in OD405 was monitored as a measure of the protease activity.
Dose/response relationships (OD405/min versus (mg enzyme)/l) were determined using the pNA assay for a number of proteases, with and without the various inhibitors. The dose-response curves were linear over a satisfactory broad range of enzyme concentrations. Varying degrees of inhibition were observed: Some proteases included for comparative purposes, viz. porcine trypsin and the SAVINASE™ protease (a subtilisin protease derived from Bacillus clausii, commercially available from Novozymes A/S, Krogshoejvej 36, DK-2880 Bagsvaerd, Denmark) were not inhibited, while other proteases were. […] It was therefore concluded that the pNA assay was indeed suitable for inhibition measurements.
Cu^2+, however, inhibited all of the proteases tested (to a varying extent, as it appears from Table 1 below).

B1: porcine trypsin: protease included for comparative purposes (protein, UniProt P00761 9-231, looked up)
Trypsin: IVGGYTCAANSIPYQVSLNSGSHFCGGSLINSQWVVSAAHCYKSRIQVRLGEHNIDVLEGNEQFINAAKIITHPNFNGNTLDNDIMLIKLSSPATLNSRVATVSLPRSCAAAGTECLISGWGNTKSSGSSYPSLLQCLKAPVLSDSSCKSSYPGQITGNMICVGFLEGGKDSCQGDSGGPVVCNGQLQGIVSWGYGCAQKNKPGVYTKVCNYVNWIQQTIAAN
Inhibition by the various inhibitors (dose/response, pNA assay): not inhibited
